Blank lines part the entries; values can stand above or below the molecule they belong to.
Key:
B55 [1] = assay: Binding of proteins to panel of purified B55 mutants; conditions: panel of B55 mutants covering patch 1-3 residues
B55 [2] = assay: MS of B55 WT, V228A, I284A, S287A and D340A immunopurifications; type: binding; conditions: B55 S287A vs WT immunopurifications

requirement of B55 S287 (patch 2) for binding (B55 [2]): does not
B1: IER2: helix-loop-helix B55 binder (protein, UniProt Q9BTL4 1-223, looked up)
Immediate early response gene …: MEVQKEAQRIMTLSVWKMYHSRMQRGGLRLHRSLQLSLVMRSARELYLSAKVEALEPEVSLPAALPSDPRLHPPREAESTAETATPDGEHPFPEPMDTQEAPTAEETSACCAPRPAKVSRKRRSSSLSDGGDAGLVPSKKARLEEKEEEEGASSEVADRLQPPPAQAEGAFPNLARVLQRRFSGLLNCSPAAPPTAPPACEAKPACRPADSMLNVLVRAVVAF
B55 patch requirement for binding (B55 [1]): requirements from residues in patch 1 and 3

B2: CDCA4: helix-loop-helix B55 binder (SERTA domain) (protein, UniProt Q9BXL8 1-241, looked up)
Cell division …: MFARGLKRKCVGHEEDVEGALAGLKTVSSYSLQRQSLLDMSLVKLQLCHMLVEPNLCRSVLIANTVRQIQEEMTQDGTWRTVAPQAAERAPLDRLVSTEILCRAAWGQEGAHPAPGLGDGHTQGPVSDLCPVTSAQAPRHLQSSAWEMDGPRENRGSFHKSLDQIFETLETKNPSCMEELFSDVDSPYYDLDTVLTGMMGGARPGPCEGLEGLAPATPGPSSSCKSDLGELDHVVEILVET
B55 patch requirement for binding (B55 [1]): requirements from residues in patch 1 and 3

Reference: article PMC10871369 (bioRxiv, 2024)
